Patent publication US12630600B2 (MEDIMMUNE LIMITED, priority 2022, dated 2026)
Starred links: 1 amine or outer side, 2 acyl side, 3 side chain; linkers in the order of their positions; H or OH if unused. Non-standard residues stand in square brackets, D forms with d. Groups on a side chain read outwards from the residue. No end group written: not given here. *: point of attachment. Trp(5-Br) = N[C@@H](Cc1c[nH]c2ccc(Br)cc12)C(=O)O; C20 diacid = O=C(O)CCCCCCCCCCCCCCCCCCC(=O)*; Bip = N[C@@H](Cc1ccc(-c2ccccc2)cc1)C(=O)O; C18 diacid = O=C(O)CCCCCCCCCCCCCCCCC(=O)*; γGlu = O=C(O)[C@H](CCC(=O)[*:2])N[*:1]; αMeF = C[C@](N)(Cc1ccccc1)C(=O)O; AEEA = NCCOCCOCC(=O)O; Aib = CC(C)(N)C(=O)O

B1: Peptide 434 (peptide)
peptide: H[Aib]QGTFTSDVSK[αMeF]LDSK([AEEA-AEEA-γGlu-C18 diacid])RAQDFVR[Trp(5-Br)]LL[Aib]E-OH
modifications: N-terminus assumed
SMILES: CC(C)C[C@H](NC(=O)[C@H](Cc1c[nH]c2ccc(Br)cc12)NC(=O)[C@H](CCCNC(=N)N)NC(=O)[C@@H](NC(=O)[C@H](Cc1ccccc1)NC(=O)[C@H](CC(=O)O)NC(=O)[C@H](CCC(N)=O)NC(=O)[C@H](C)NC(=O)[C@H](CCCNC(=N)N)NC(=O)[C@H](CCCCNC(=O)COCCOCCNC(=O)COCCOCCNC(=O)CC[C@H](NC(=O)CCCCCCCCCCCCCCCCC(=O)O)C(=O)O)NC(=O)[C@H](CO)NC(=O)[C@H](CC(=O)O)NC(=O)[C@H](CC(C)C)NC(=O)[C@](C)(Cc1ccccc1)NC(=O)[C@H](CCCCN)NC(=O)[C@H](CO)NC(=O)[C@@H](NC(=O)[C@H](CC(=O)O)NC(=O)[C@H](CO)NC(=O)[C@@H](NC(=O)[C@H](Cc1ccccc1)NC(=O)[C@@H](NC(=O)CNC(=O)[C@H](CCC(N)=O)NC(=O)C(C)(C)NC(=O)[C@@H](N)Cc1c[nH]cn1)[C@@H](C)O)[C@@H](C)O)C(C)C)C(C)C)C(=O)N[C@@H](CC(C)C)C(=O)NC(C)(C)C(=O)N[C@@H](CCC(=O)O)C(=O)O
B2: Peptide 432 (peptide)
peptide: H[Aib]QGTFTSDVSK[αMeF]LDSK([AEEA-AEEA-γGlu-C18 diacid])RAQDFVR[Bip]LL[Aib]E-OH
modifications: N-terminus assumed
SMILES: CC(C)C[C@H](NC(=O)[C@H](Cc1ccc(-c2ccccc2)cc1)NC(=O)[C@H](CCCNC(=N)N)NC(=O)[C@@H](NC(=O)[C@H](Cc1ccccc1)NC(=O)[C@H](CC(=O)O)NC(=O)[C@H](CCC(N)=O)NC(=O)[C@H](C)NC(=O)[C@H](CCCNC(=N)N)NC(=O)[C@H](CCCCNC(=O)COCCOCCNC(=O)COCCOCCNC(=O)CC[C@H](NC(=O)CCCCCCCCCCCCCCCCC(=O)O)C(=O)O)NC(=O)[C@H](CO)NC(=O)[C@H](CC(=O)O)NC(=O)[C@H](CC(C)C)NC(=O)[C@](C)(Cc1ccccc1)NC(=O)[C@H](CCCCN)NC(=O)[C@H](CO)NC(=O)[C@@H](NC(=O)[C@H](CC(=O)O)NC(=O)[C@H](CO)NC(=O)[C@@H](NC(=O)[C@H](Cc1ccccc1)NC(=O)[C@@H](NC(=O)CNC(=O)[C@H](CCC(N)=O)NC(=O)C(C)(C)NC(=O)[C@@H](N)Cc1c[nH]cn1)[C@@H](C)O)[C@@H](C)O)C(C)C)C(C)C)C(=O)N[C@@H](CC(C)C)C(=O)NC(C)(C)C(=O)N[C@@H](CCC(=O)O)C(=O)O
B3: Peptide 436 (peptide)
peptide: H[Aib]QGTFTSDVSK[αMeF]LDRK([AEEA-AEEA-γGlu-C18 diacid])RAQDFVRWLV[Aib]E-NH2
modifications: N-terminus assumed
SMILES: CC(C)C[C@H](NC(=O)[C@H](Cc1c[nH]c2ccccc12)NC(=O)[C@H](CCCNC(=N)N)NC(=O)[C@@H](NC(=O)[C@H](Cc1ccccc1)NC(=O)[C@H](CC(=O)O)NC(=O)[C@H](CCC(N)=O)NC(=O)[C@H](C)NC(=O)[C@H](CCCNC(=N)N)NC(=O)[C@H](CCCCNC(=O)COCCOCCNC(=O)COCCOCCNC(=O)CC[C@H](NC(=O)CCCCCCCCCCCCCCCCC(=O)O)C(=O)O)NC(=O)[C@H](CCCNC(=N)N)NC(=O)[C@H](CC(=O)O)NC(=O)[C@H](CC(C)C)NC(=O)[C@](C)(Cc1ccccc1)NC(=O)[C@H](CCCCN)NC(=O)[C@H](CO)NC(=O)[C@@H](NC(=O)[C@H](CC(=O)O)NC(=O)[C@H](CO)NC(=O)[C@@H](NC(=O)[C@H](Cc1ccccc1)NC(=O)[C@@H](NC(=O)CNC(=O)[C@H](CCC(N)=O)NC(=O)C(C)(C)NC(=O)[C@@H](N)Cc1c[nH]cn1)[C@@H](C)O)[C@@H](C)O)C(C)C)C(C)C)C(=O)N[C@H](C(=O)NC(C)(C)C(=O)N[C@@H](CCC(=O)O)C(N)=O)C(C)C
B4: Peptide 437 (peptide)
peptide: H[Aib]QGTFTSDVSK[αMeF]LDRK([AEEA-AEEA-γGlu-C20 diacid])RAQDFVRWLV[Aib]E-NH2
modifications: N-terminus assumed
SMILES: CC(C)C[C@H](NC(=O)[C@H](Cc1c[nH]c2ccccc12)NC(=O)[C@H](CCCNC(=N)N)NC(=O)[C@@H](NC(=O)[C@H](Cc1ccccc1)NC(=O)[C@H](CC(=O)O)NC(=O)[C@H](CCC(N)=O)NC(=O)[C@H](C)NC(=O)[C@H](CCCNC(=N)N)NC(=O)[C@H](CCCCNC(=O)COCCOCCNC(=O)COCCOCCNC(=O)CC[C@H](NC(=O)CCCCCCCCCCCCCCCCCCC(=O)O)C(=O)O)NC(=O)[C@H](CCCNC(=N)N)NC(=O)[C@H](CC(=O)O)NC(=O)[C@H](CC(C)C)NC(=O)[C@](C)(Cc1ccccc1)NC(=O)[C@H](CCCCN)NC(=O)[C@H](CO)NC(=O)[C@@H](NC(=O)[C@H](CC(=O)O)NC(=O)[C@H](CO)NC(=O)[C@@H](NC(=O)[C@H](Cc1ccccc1)NC(=O)[C@@H](NC(=O)CNC(=O)[C@H](CCC(N)=O)NC(=O)C(C)(C)NC(=O)[C@@H](N)Cc1c[nH]cn1)[C@@H](C)O)[C@@H](C)O)C(C)C)C(C)C)C(=O)N[C@H](C(=O)NC(C)(C)C(=O)N[C@@H](CCC(=O)O)C(N)=O)C(C)C
B5: Peptide 438 (peptide)
peptide: H[Aib]QGTFTSDVSK[αMeF]LDKK([AEEA-AEEA-γGlu-C18 diacid])RAQDFVRWLEA[Aib]G-NH2
modifications: N-terminus assumed
SMILES: CC(C)C[C@H](NC(=O)[C@H](Cc1c[nH]c2ccccc12)NC(=O)[C@H](CCCNC(=N)N)NC(=O)[C@@H](NC(=O)[C@H](Cc1ccccc1)NC(=O)[C@H](CC(=O)O)NC(=O)[C@H](CCC(N)=O)NC(=O)[C@H](C)NC(=O)[C@H](CCCNC(=N)N)NC(=O)[C@H](CCCCNC(=O)COCCOCCNC(=O)COCCOCCNC(=O)CC[C@H](NC(=O)CCCCCCCCCCCCCCCCC(=O)O)C(=O)O)NC(=O)[C@H](CCCCN)NC(=O)[C@H](CC(=O)O)NC(=O)[C@H](CC(C)C)NC(=O)[C@](C)(Cc1ccccc1)NC(=O)[C@H](CCCCN)NC(=O)[C@H](CO)NC(=O)[C@@H](NC(=O)[C@H](CC(=O)O)NC(=O)[C@H](CO)NC(=O)[C@@H](NC(=O)[C@H](Cc1ccccc1)NC(=O)[C@@H](NC(=O)CNC(=O)[C@H](CCC(N)=O)NC(=O)C(C)(C)NC(=O)[C@@H](N)Cc1c[nH]cn1)[C@@H](C)O)[C@@H](C)O)C(C)C)C(C)C)C(=O)N[C@@H](CCC(=O)O)C(=O)N[C@@H](C)C(=O)NC(C)(C)C(=O)NCC(N)=O
B6: Peptide 439 (peptide)
peptide: H[Aib]QGTFTSDVSK[αMeF]LDRK([AEEA-AEEA-γGlu-C18 diacid])RAQDFVRWLL[Aib]E-NH2
modifications: N-terminus assumed
SMILES: CC(C)C[C@H](NC(=O)[C@H](Cc1c[nH]c2ccccc12)NC(=O)[C@H](CCCNC(=N)N)NC(=O)[C@@H](NC(=O)[C@H](Cc1ccccc1)NC(=O)[C@H](CC(=O)O)NC(=O)[C@H](CCC(N)=O)NC(=O)[C@H](C)NC(=O)[C@H](CCCNC(=N)N)NC(=O)[C@H](CCCCNC(=O)COCCOCCNC(=O)COCCOCCNC(=O)CC[C@H](NC(=O)CCCCCCCCCCCCCCCCC(=O)O)C(=O)O)NC(=O)[C@H](CCCNC(=N)N)NC(=O)[C@H](CC(=O)O)NC(=O)[C@H](CC(C)C)NC(=O)[C@](C)(Cc1ccccc1)NC(=O)[C@H](CCCCN)NC(=O)[C@H](CO)NC(=O)[C@@H](NC(=O)[C@H](CC(=O)O)NC(=O)[C@H](CO)NC(=O)[C@@H](NC(=O)[C@H](Cc1ccccc1)NC(=O)[C@@H](NC(=O)CNC(=O)[C@H](CCC(N)=O)NC(=O)C(C)(C)NC(=O)[C@@H](N)Cc1c[nH]cn1)[C@@H](C)O)[C@@H](C)O)C(C)C)C(C)C)C(=O)N[C@@H](CC(C)C)C(=O)NC(C)(C)C(=O)N[C@@H](CCC(=O)O)C(N)=O
B7: Peptide 435 (peptide)
peptide: H[Aib]QGTFTSDVSK[αMeF]LDTK([AEEA-AEEA-γGlu-C18 diacid])RARDFVQ[Aib]LLE[Aib]G-OH
modifications: N-terminus assumed
SMILES: CC(C)C[C@H](NC(=O)[C@H](CC(C)C)NC(=O)C(C)(C)NC(=O)[C@H](CCC(N)=O)NC(=O)[C@@H](NC(=O)[C@H](Cc1ccccc1)NC(=O)[C@H](CC(=O)O)NC(=O)[C@H](CCCNC(=N)N)NC(=O)[C@H](C)NC(=O)[C@H](CCCNC(=N)N)NC(=O)[C@H](CCCCNC(=O)COCCOCCNC(=O)COCCOCCNC(=O)CC[C@H](NC(=O)CCCCCCCCCCCCCCCCC(=O)O)C(=O)O)NC(=O)[C@@H](NC(=O)[C@H](CC(=O)O)NC(=O)[C@H](CC(C)C)NC(=O)[C@](C)(Cc1ccccc1)NC(=O)[C@H](CCCCN)NC(=O)[C@H](CO)NC(=O)[C@@H](NC(=O)[C@H](CC(=O)O)NC(=O)[C@H](CO)NC(=O)[C@@H](NC(=O)[C@H](Cc1ccccc1)NC(=O)[C@@H](NC(=O)CNC(=O)[C@H](CCC(N)=O)NC(=O)C(C)(C)NC(=O)[C@@H](N)Cc1c[nH]cn1)[C@@H](C)O)[C@@H](C)O)C(C)C)[C@@H](C)O)C(C)C)C(=O)N[C@@H](CCC(=O)O)C(=O)NC(C)(C)C(=O)NCC(=O)O
B8: Peptide 440 (peptide)
peptide: H[Aib]QGTFTSDVSK[αMeF]LDKK([AEEA-AEEA-γGlu-C20 diacid])RARDFVRWLL[Aib]E-OH
modifications: N-terminus assumed
SMILES: CC(C)C[C@H](NC(=O)[C@H](Cc1c[nH]c2ccccc12)NC(=O)[C@H](CCCNC(=N)N)NC(=O)[C@@H](NC(=O)[C@H](Cc1ccccc1)NC(=O)[C@H](CC(=O)O)NC(=O)[C@H](CCCNC(=N)N)NC(=O)[C@H](C)NC(=O)[C@H](CCCNC(=N)N)NC(=O)[C@H](CCCCNC(=O)COCCOCCNC(=O)COCCOCCNC(=O)CC[C@H](NC(=O)CCCCCCCCCCCCCCCCCCC(=O)O)C(=O)O)NC(=O)[C@H](CCCCN)NC(=O)[C@H](CC(=O)O)NC(=O)[C@H](CC(C)C)NC(=O)[C@](C)(Cc1ccccc1)NC(=O)[C@H](CCCCN)NC(=O)[C@H](CO)NC(=O)[C@@H](NC(=O)[C@H](CC(=O)O)NC(=O)[C@H](CO)NC(=O)[C@@H](NC(=O)[C@H](Cc1ccccc1)NC(=O)[C@@H](NC(=O)CNC(=O)[C@H](CCC(N)=O)NC(=O)C(C)(C)NC(=O)[C@@H](N)Cc1c[nH]cn1)[C@@H](C)O)[C@@H](C)O)C(C)C)C(C)C)C(=O)N[C@@H](CC(C)C)C(=O)NC(C)(C)C(=O)N[C@@H](CCC(=O)O)C(=O)O

What follows are binders tested against human glucagon receptor (human, UniProt P47871) (assay: cell-based or functional assay).
For B1, the “cAMP production EC50” value was 0.294 nM. For B2, the “cAMP production EC50” value was 1.16 nM. B3 was tested, and the “cAMP production EC50” value was 0.0688 nM. In the case of B4, the “cAMP production EC50” value is reported as 0.0969 nM. With B5 the “cAMP production EC50” value was 0.0689 nM. In the case of B6, the “cAMP production EC50” value is reported as 0.0577 nM. In the case of B7, the “cAMP production EC50” value is reported as 0.24 nM. B8 was tested, and the “cAMP production EC50” value was 0.081 nM.

These binders were tested against human GLP-1 receptor (human, UniProt P43220) (assay: cell-based or functional assay).
For B1, the “cAMP production EC50” value was 0.153 nM. In the case of B2, the “cAMP production EC50” value is reported as 1.38 nM. B3 was tested, and the “cAMP production EC50” value was 0.00743 nM. For B4, the “cAMP production EC50” value was 0.0269 nM. With B5 the “cAMP production EC50” value was 0.0179 nM. With B6 the “cAMP production EC50” value was 0.0307 nM. B7 was tested, and the “cAMP production EC50” value was 0.0227 nM. For B8, the “cAMP production EC50” value was 0.154 nM.
